Laboratory results as given in PMC8565321.

Target: BLM (UniProt P54132)
Assay: co-IP and western blot
Conditions: reference: wild type USP37; sites S114

USP37 (from UniProt Q86T82) S114A
binding against the reference: weaker
